The values that follow come from patent US20250320281A1.

One may read the IC50 as the concentration that inhibits the measured activity by half. Lower therefore signals inhibition by little substance.

Where only a bound is given, the exact number is not on record here.

Holding throughout (experiment): cell-based or functional assay
For experiment [1], the target named is HIV-1 JRCSF envelope glycoprotein (Env) on pseudovirus (HIV-1) (UniProt P20871).
Experiment [2] concerns the target HIV-1 92TH021 envelope glycoprotein (Env) on pseudovirus (HIV-1).
Experiment [3] addresses HIV-1 envelope glycoprotein (Env) of isolate 94UG103, clade A (HIV-1).
Experiment [4] concerns the target HIV-1 Env of isolate MGRM-G-015 (HIV-1).
Experiment [5] addresses HIV-1 Env of pseudovirus MGRM-AG-011 (clade CRF_AG) (HIV-1).
The target in experiment [6] is HIV-1 92RW020 envelope glycoprotein (Env) on pseudovirus (HIV-1).
Experiment [7] addresses HIV-1 Env of pseudovirus MGRM-AG-001 (clade CRF_AG) (HIV-1).
Experiment [8] addresses HIV-1 Env of isolate MGRM-G-014 (HIV-1).
Experiment [9] concerns the target HIV-1 Env of pseudovirus MGRM-AE-004 (clade CRF01_AE) (HIV-1).
For experiment [10], the target named is HIV-1 Env of isolate TRJ0.58 (Acute), clade B, on pseudovirus (HIV-1).
For experiment [11], the target named is HIV-1 Env of pseudovirus MGRM-AE-006 (clade CRF01_AE) (HIV-1).
The target in experiment [12] is HIV-1 Env of isolate 6535.3 (Acute), clade B, on pseudovirus (HIV-1).
For experiment [13], the target named is HIV-1 Env of pseudovirus MGRM-AE-001 (clade CRF01_AE) (HIV-1).
Experiment [14] concerns the target HIV-1 Env of pseudovirus MGRM-F1-022 (HIV-1).
Experiment [15] addresses HIV-1 envelope glycoprotein (Env) of isolate 92RW026, clade A (HIV-1).
Experiment [16] has as its target HIV-1 Env of isolate MGRM-F1-020 (HIV-1).
The target in experiment [17] is HIV-1 Env of isolate PVO.4 (subtype B pseudovirus) (HIV-1).
Experiment [18] concerns the target HIV-1 Env of isolate CAAN.A2 (subtype B pseudovirus) (HIV-1).
Experiment [19] deals with HIV-1 Env of isolate 93TH305 (subtype B pseudovirus) (HIV-1).
In experiment [20] the target is HIV-1 Env of isolate MGRM-AE-004 (HIV-1).
Experiment [21] addresses HIV-1 Env of isolate MGRM-D-011 (pseudovirus) (HIV-1).
Experiment [22] addresses HIV-1 Env of isolate JR-CSF (pseudovirus) (HIV-1) (UniProt P20871).
Experiment [23] addresses HIV-1 Env of isolate VLGCA1 (subtype A) (HIV-1).
Experiment [24] deals with HIV-1 Env of isolate MGRM-G-025 (HIV-1).
The target of experiment [25] is HIV-1 Env of isolate MGRM-G-004 (HIV-1).
Experiment [26] addresses HIV-1 Env of isolate 92TH021 (pseudovirus) (HIV-1).
Experiment [27] has as its target HIV-1 Env of isolate 92BR020 (HIV-1).
Experiment [28] addresses HIV-1 Env of isolate MG RM-D-020 (HIV-1).

4980_N08 (PGT-143) (antibody), sequence (VH): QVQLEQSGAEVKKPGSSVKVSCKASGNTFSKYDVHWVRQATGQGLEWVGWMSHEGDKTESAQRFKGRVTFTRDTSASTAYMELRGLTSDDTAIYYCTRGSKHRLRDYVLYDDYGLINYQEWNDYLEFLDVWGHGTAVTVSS
4980_N08 (PGT-143) (antibody), sequence (VL): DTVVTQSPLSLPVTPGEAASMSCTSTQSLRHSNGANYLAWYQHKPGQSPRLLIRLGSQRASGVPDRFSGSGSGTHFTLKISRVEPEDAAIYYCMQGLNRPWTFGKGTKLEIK
4970_K22 (PGT-144) (antibody), sequence (VH): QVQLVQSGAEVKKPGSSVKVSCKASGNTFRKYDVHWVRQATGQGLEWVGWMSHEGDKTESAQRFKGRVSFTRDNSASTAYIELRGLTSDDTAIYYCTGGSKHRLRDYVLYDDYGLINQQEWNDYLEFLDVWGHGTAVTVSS
4970_K22 (PGT-144) (antibody), sequence (VL): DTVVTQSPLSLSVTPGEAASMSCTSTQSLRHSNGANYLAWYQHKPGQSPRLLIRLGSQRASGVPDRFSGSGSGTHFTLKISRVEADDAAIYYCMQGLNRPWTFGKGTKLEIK
4995_E20 (PGT-142) (antibody), sequence (VH): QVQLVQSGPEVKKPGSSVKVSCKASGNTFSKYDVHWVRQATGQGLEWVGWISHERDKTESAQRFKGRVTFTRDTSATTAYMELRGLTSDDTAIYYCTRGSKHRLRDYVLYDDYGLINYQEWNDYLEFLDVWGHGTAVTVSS
4995_E20 (PGT-142) (antibody), sequence (VL): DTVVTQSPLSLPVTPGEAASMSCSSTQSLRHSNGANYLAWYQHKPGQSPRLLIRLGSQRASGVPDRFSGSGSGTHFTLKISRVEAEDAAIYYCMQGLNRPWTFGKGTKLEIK
4993_K13 (PGT-141) (antibody), sequence (VH): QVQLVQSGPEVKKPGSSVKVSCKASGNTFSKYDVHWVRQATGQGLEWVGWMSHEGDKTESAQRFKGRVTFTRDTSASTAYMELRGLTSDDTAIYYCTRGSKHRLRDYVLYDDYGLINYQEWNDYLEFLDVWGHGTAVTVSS

As to 1496_C09 (PG9) (TCN-109) (antibody), the IC50, pseudovirus neutralization is less than 2.5 ng/mL in [1], 0.111 µg/mL in experiment [2] and 0.0637 µg/mL in experiment [6]. Besides, in experiment [1], the IC90 (pseudovirus neutralization) was less than 0.0025 µg/mL. Besides, the IC50 (µg/ml), pseudovirus neutralization was determined as 0.24 µg/mL in [3]; 0.43 µg/mL in experiment [10]; 0.22 µg/mL in [12]; 0.06 µg/mL in [14]; 0.27 µg/mL in experiment [15]. The IC50 (µg/mL), pseudovirus neutralization in [4] turned out to be 6.6 µg/mL; in [8] it was 16.5 µg/mL. For the same substance, the IC50 stood at 0.01 µg/mL in experiment [5]; 8.83 µg/mL in experiment [7]; 0.01 µg/mL in [9]; 0.05 µg/mL in experiment [11]; 2.97 µg/mL in [13].
4838_L06 (PGT-121) (antibody): the IC50 (µg/mL), pseudovirus neutralization came to 0.167 µg/mL in [16], 0.137 µg/mL in [17], 0.011 µg/mL in experiment [18] and 0.007 µg/mL in [19]. The half-inhibitory concentration (IC50) in [20] is more than 50 µg/mL. The IC50, pseudovirus neutralization in experiment [21] came to 0.018 µg/mL.
With 4858_P08 (PGT-123) (antibody), the IC50 (µg/mL), pseudovirus neutralization in [16] was found to be 0.051 µg/mL; in [17] it was 0.105 µg/mL; in experiment [18], 0.015 µg/mL; in experiment [19], 0.008 µg/mL. For the same substance, the neutralization IC50 in [1] is 0.0423 µg/mL; in experiment [2] it was more than 10 µg/mL; in [6] it was 3.8 ng/mL. For the same substance, the neutralization IC80 was 0.143 µg/mL in experiment [1], more than 10 µg/mL in experiment [2] and 0.0106 µg/mL in experiment [6]. Further, the neutralization IC90 in [1] is 0.289 µg/mL; in [2] it was more than 10 µg/mL; in [6] it was 0.0194 µg/mL. The neutralization IC95 is 0.547 µg/mL in experiment [1], more than 10 µg/mL in [2] and 0.0343 µg/mL in experiment [6]. The Primary Neutralization Index (B cell culture supernatant) in experiment [22] came out at 1.6. The substance further yielded an IC50 in experiment [20] of more than 50 µg/mL. In addition, in experiment [21], the IC50, pseudovirus neutralization was found to be 0.012 µg/mL.
Take 4877_D15 (PGT-122) (antibody): the IC50 (µg/mL), pseudovirus neutralization in experiment [16] is 0.321 µg/mL; in [17], 0.689 µg/mL; in [18] it was 0.011 µg/mL; in [19], 0.013 µg/mL. Also, the IC50 in experiment [20] is more than 50 µg/mL. In addition, the IC50, pseudovirus neutralization in experiment [21] is 0.019 µg/mL.
For the substance 4970_K22 (PGT-144) (antibody), the IC50 (µg/mL), pseudovirus neutralization was more than 50 µg/mL in [4]; more than 50 µg/mL in experiment [23]; more than 50 µg/mL in experiment [24]; 0.562 µg/mL in experiment [8]; more than 50 µg/mL in [25].
With 4980_N08 (PGT-143) (antibody), the IC50 (µg/mL), pseudovirus neutralization is more than 50 µg/mL in experiment [4]; 17.4 µg/mL in experiment [23]; more than 50 µg/mL in experiment [24]; 0.107 µg/mL in experiment [8]; more than 50 µg/mL in [25].
With 4993_K13 (PGT-141) (antibody), the IC50 (µg/mL), pseudovirus neutralization is more than 50 µg/mL in experiment [4]; 2.07 µg/mL in [23]; more than 50 µg/mL in experiment [24]; 0.222 µg/mL in experiment [8]; more than 50 µg/mL in [25].
Regarding 4995_E20 (PGT-142) (antibody), the IC50 (µg/mL), pseudovirus neutralization in [4] is more than 50 µg/mL; in [23], 2.75 µg/mL; in [24], more than 50 µg/mL; in experiment [8], 0.076 µg/mL; in experiment [25], more than 50 µg/mL.
For 5123_A06 (PGT-125) (antibody), the IC50 (µg/mL), pseudovirus neutralization was more than 50 µg/mL in experiment [16], 0.042 µg/mL in [17], 5.47 µg/mL in experiment [18] and 0.008 µg/mL in experiment [19]. Besides, the Polyclonal Transfectant Neutralization Index was found to be 119 in experiment [22] and 50.6 in experiment [26]. Also, the Primary Neutralization Index (B cell culture supernatant) in experiment [22] worked out at 1730; in experiment [26], 133. The half-maximal inhibitory concentration (IC50) in experiment [20] was more than 50 µg/mL. In addition, in experiment [21], the IC50, pseudovirus neutralization turned out to be 0.008 µg/mL.
For the substance 5141_B17 (PGT-126) (antibody), the IC50 (µg/mL), pseudovirus neutralization in [16] was more than 50 µg/mL; in [17] it was 0.017 µg/mL; in [18], 0.273 µg/mL; in experiment [19], 0.013 µg/mL. The IC80 (pseudovirus neutralization) in experiment [1] amounted to 0.018 µg/mL; in experiment [2], 1.62 µg/mL; in experiment [6], 0.0168 µg/mL. Moreover, the values for the IC90 (pseudovirus neutralization) in experiment [1], in experiment [2] and in experiment [6] were 0.0339 µg/mL, 6.91 µg/mL and 0.0359 µg/mL, respectively. For the same substance, the IC95 (pseudovirus neutralization) in [1] was 0.0608 µg/mL; in experiment [2] it was more than 10 µg/mL; in experiment [6], 0.0728 µg/mL. The IC50, pseudovirus neutralization in experiment [2] stood at 0.115 µg/mL; in experiment [6], 0.0046 µg/mL; in experiment [21] it was 0.009 µg/mL. In addition, the results for the Polyclonal Transfectant Neutralization Index in [22] and in experiment [26] were 102 and 2.74, respectively. In addition, the Primary Neutralization Index (B cell culture supernatant) in [22] amounted to 1410; in [26], 2.3. In experiment [20], this substance registered an IC50 of more than 50 µg/mL.
Regarding 5145_B14 (PGT-127) (antibody), the IC50 (µg/mL), pseudovirus neutralization in experiment [16] is more than 50 µg/mL; in experiment [17], 0.164 µg/mL; in experiment [18], 0.371 µg/mL; in experiment [19] it was 0.017 µg/mL. The Polyclonal Transfectant Neutralization Index in [22] came to 1.61; in experiment [26] it was 0.94. The Primary Neutralization Index (B cell culture supernatant) in experiment [22] was 31.1; in experiment [26] it was 1. This substance also gave a concentration for half-maximal inhibition (IC50) in [20] of more than 50 µg/mL. For the same substance, the IC50, pseudovirus neutralization in experiment [21] was 0.015 µg/mL.
As for PGV04 (antibody), the IC50 (µg/mL), pseudovirus neutralization in experiment [4] is 0.333 µg/mL; in [24], 1.61 µg/mL; in [27], 0.25 µg/mL; in experiment [8], 0.056 µg/mL; in [25], more than 50 µg/mL.
For the substance VRC01 (antibody), the IC50 in [16] is 1.89 µg/mL; in experiment [28], 0.192 µg/mL. The IC50 (µg/mL), pseudovirus neutralization in [4] is 0.548 µg/mL; in experiment [23], 0.163 µg/mL; in [24], 0.292 µg/mL; in experiment [8], 0.056 µg/mL; in experiment [25] it was more than 50 µg/mL.
